In article PMC10184827:

Assays:
[1] = molecular target: rabbit muscle actin (RMA; α-actin) (rabbit) (UniProt P68135)
[2] = molecular target: human γ-actin (γ1-actin, cytoplasmic actin, ACTG1) purified from budding yeast (human) (UniProt P63261)
[3] = molecular target: human β-actin (cytoplasmic actin, ACTB) purified from budding yeast (human) (UniProt P60709)
[4] = molecular target: rabbit muscle actin (RMA; α-actin) (rabbit) (UniProt P68135); assay: TIRF microscopy of single filament polymerization; 1 µM total actin monomers with 10% fluorescently labeled RMA; TIRF buffer (20 mM imidazole pH 7.4, 50 mM KCl, 1 mM MgCl2, 1 mM EGTA, 0.2 mM ATP, 10 mM DTT, 40 mM glucose, 0.25% methylcellulose); monomer addition to growing filaments

Chain of mDia1(FH1-C) (amino acids 571–1255) (O08808 571-1255): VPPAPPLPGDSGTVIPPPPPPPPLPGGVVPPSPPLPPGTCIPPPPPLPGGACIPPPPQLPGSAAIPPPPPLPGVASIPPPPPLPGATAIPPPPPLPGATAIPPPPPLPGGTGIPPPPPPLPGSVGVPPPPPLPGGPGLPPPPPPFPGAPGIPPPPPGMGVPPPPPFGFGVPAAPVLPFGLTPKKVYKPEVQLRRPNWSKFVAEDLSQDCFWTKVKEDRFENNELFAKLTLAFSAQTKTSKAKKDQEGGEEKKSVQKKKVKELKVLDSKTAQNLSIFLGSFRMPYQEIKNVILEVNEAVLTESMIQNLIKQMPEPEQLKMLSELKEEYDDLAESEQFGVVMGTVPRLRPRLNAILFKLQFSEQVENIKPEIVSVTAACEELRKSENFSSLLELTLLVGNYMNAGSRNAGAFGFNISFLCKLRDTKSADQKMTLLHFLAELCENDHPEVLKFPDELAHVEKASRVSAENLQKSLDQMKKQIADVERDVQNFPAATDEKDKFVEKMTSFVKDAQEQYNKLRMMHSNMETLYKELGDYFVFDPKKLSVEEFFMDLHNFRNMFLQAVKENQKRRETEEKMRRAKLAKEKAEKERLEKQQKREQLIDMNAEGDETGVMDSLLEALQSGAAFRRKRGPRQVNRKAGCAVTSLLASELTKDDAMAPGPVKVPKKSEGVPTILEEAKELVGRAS

filament elongation rate (subunits s^−1 µM^−1) [4] | Substance | actin filament elongation rate by TIRF microscopy, 1 µM actin with 2 µM PFN1 and 10 nM mDia1(FH1-C) (subunits s^−1 µM^−1) [1] | actin filament elongation rate by TIRF microscopy, 1 µM actin with 2 µM PFN1 and 10 nM mDia1(FH1-C) (subunits s^−1 µM^−1) [2] | actin filament elongation rate by TIRF microscopy, 1 µM actin with 2 µM PFN1 and 10 nM mDia1(FH1-C) (subunits s^−1 µM^−1) [3]
– | mDia1(FH1-C) (amino acids 571–1255) (from UniProt O08808 571-1255) (domain or fragment) | 73.6 | 61.2 | 59.3
10 | rabbit muscle actin (RMA; α-actin) (from UniProt P68135 1-377) (natural protein) | – | – | –
